Experimental findings from the supplement of paper PMC6755084 are described below.

B1: F1*; the commonest letter at each place (parent)
chain: GAGACCGCAACTGAAAAGTTGTTATCACTTGTCGTAAGACACTTTGGATGGGTTGAAGTTCTGCACGTAGAAGCAAAAGGC

The variants in this data set derive from B1. Briefly: fraction ligated after 30 min (ligated reads / total reads); higher = more ligase activity. The note with it: with F1*sub RNA substrate (template-directed ligation), 42 °C. The gist of the method: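 Ribozyme variants were transcribed with T7 from PCR-amplified oligo-pool templates and gel-purified. Ligated and unligated bands, separated on gel, were reverse transcribed with barcoded primers and sequenced on a MiSeq, with core bases filtered at quality ≥20. Fraction ligated per variant was computed as ligated reads divided by total reads.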
As for GAGACCGCAACTGAAAAGTTGTTATCACTTGTAGTAAGACAGTTTGGATGGGTTGAAGTTCTGCACGTAGAAGCAAAAGGC, the fraction ligated turned out to be 0.84.

For GAGACCGCAACTGAAAAGTTGTTATCACTTGTAGTAAGACATTTTGGATGGGTTGAAGTTCTGCACGTAGAAGCAAAAGGC, the fraction ligated is 0.872.

Take GAGACCGCAACTGAAAAGTTGTTATCACTTGTAGTAAGACAATTTGGATGGGTTGAAGTTCTGCACGTAGAAGCAAAAGGC: the fraction ligated stood at 0.879.

As for GAGACCGCAACTGAAAAGTTGTTATCACTTGTAGTAAGACACTTTGGATGGGTTCAAGTTCTGCACGTAGAAGCAAAAGGC, the fraction ligated stood at 0.77.

On to GAGACCGCAACTGAAAAGTTGTTATCACTTGTAGTAAGACACTTTGGATGGGTTTAAGTTCTGCACGTAGAAGCAAAAGGC, for which the fraction ligated was 0.809.

With GAGACCGCAACTGAAAAGTTGTTATCACTTGTAGTAAGACACTTTGGATGGGTTAAAGTTCTGCACGTAGAAGCAAAAGGC, the fraction ligated came out at 0.84.

With GAGACCGCAACTGAAAAGTTGTTATCACTTGTAGTAAGACACTTTGGATGGGTTGGAGTTCTGCACGTAGAAGCAAAAGGC, the fraction ligated is 0.812.

GAGACCGCAACTGAAAAGTTGTTATCACTTGTAGTAAGACACTTTGGATGGGTTGTAGTTCTGCACGTAGAAGCAAAAGGC: the fraction ligated is 0.837.

In the case of GAGACCGCAACTGAAAAGTTGTTATCACTTGTAGTAAGACACTTTGGATGGGTTGCAGTTCTGCACGTAGAAGCAAAAGGC, the fraction ligated amounted to 0.742.

For GAGACCGCAACTGAAAAGTTGTTATCACTTGTAGTAAGACACTTTGGATGGGTTGAGGTTCTGCACGTAGAAGCAAAAGGC, the fraction ligated came out at 0.868.

As to GAGACCGCAACTGAAAAGTTGTTATCACTTGTAGTAAGACACTTTGGATGGGTTGATGTTCTGCACGTAGAAGCAAAAGGC, the fraction ligated worked out at 0.849.

Regarding GAGACCGCAACTGAAAAGTTGTTATCACTTGTAGTAAGACACTTTGGATGGGTTGACGTTCTGCACGTAGAAGCAAAAGGC, the fraction ligated worked out at 0.834.

On to GAGACCGCAACTGAAAAGTTGTTATCACTTGTAGTAAGATACTTTGGATGGGTTGAAGTTCTGCACGTAGAAGCAAAAGGC, for which the fraction ligated stood at 0.849.

Take GAGACCGCAACTGAAAAGTTGTTATCACTTGTAGTAAGAGACTTTGGATGGGTTGAAGTTCTGCACGTAGAAGCAAAAGGC: the fraction ligated is 0.849.

In the case of GAGACCGCAACTGAAAAGTTGTTATCACTTGTAGTAAGAAACTTTGGATGGGTTGAAGTTCTGCACGTAGAAGCAAAAGGC, the fraction ligated stood at 0.853.

On to GAGACCGCAACTGAAAAGTTGTTATCACTTGTGGTAAGACGCTTTGGATGGGTTGAAGTTCTGCACGTAGAAGCAAAAGGC, for which the fraction ligated came to 0.791.

With GAGACCGCAACTGAAAAGTTGTTATCACTTGTGGTAAGACTCTTTGGATGGGTTGAAGTTCTGCACGTAGAAGCAAAAGGC, the fraction ligated came to 0.789.

Regarding GAGACCGCAACTGAAAAGTTGTTATCACTTGTGGTAAGACCCTTTGGATGGGTTGAAGTTCTGCACGTAGAAGCAAAAGGC, the fraction ligated turned out to be 0.822.

In the case of GAGACCGCAACTGAAAAGTTGTTATCACTTGTAGTAAGACACTTTGAATGGGTTGAAGTTCTGCACGTAGAAGCAAAAGGC, the fraction ligated turned out to be 0.745.

Regarding GAGACCGCAACTGAAAAGTTGTTATCACTTGTAGTAAGACACTTTGCATGGGTTGAAGTTCTGCACGTAGAAGCAAAAGGC, the fraction ligated amounted to 0.109.

Take GAGACCGCAACTGAAAAGTTGTTATCACTTGTAGTAAGACACTTTGTATGGGTTGAAGTTCTGCACGTAGAAGCAAAAGGC: the fraction ligated was 0.219.

Take GAGACCGCAACTGAAAAGTTGTTATCACTTGTAATAAGACACTTTGGATGGGTTGAAGTTCTGCACGTAGAAGCAAAAGGC: the fraction ligated amounted to 0.834.

GAGACCGCAACTGAAAAGTTGTTATCACTTGTACTAAGACACTTTGGATGGGTTGAAGTTCTGCACGTAGAAGCAAAAGGC: the fraction ligated is 0.805.

For the variant GAGACCGCAACTGAAAAGTTGTTATCACTTGTATTAAGACACTTTGGATGGGTTGAAGTTCTGCACGTAGAAGCAAAAGGC, the fraction ligated came to 0.843.

Consider GAGACCGCAACTGAAAAGTTGTTATCACTTGTAGCAAGACACTTTGGATGGGTTGAAGTTCTGCACGTAGAAGCAAAAGGC, for which the fraction ligated turned out to be 0.85.

Consider GAGACCGCAACTGAAAAGTTGTTATCACTTGTAGAAAGACACTTTGGATGGGTTGAAGTTCTGCACGTAGAAGCAAAAGGC, for which the fraction ligated amounted to 0.879.

Consider GAGACCGCAACTGAAAAGTTGTTATCACTTGTAGGAAGACACTTTGGATGGGTTGAAGTTCTGCACGTAGAAGCAAAAGGC, for which the fraction ligated worked out at 0.866.

Take GAGACCGCAACTGAAAAGTTGTTATCACTTGTAGTAAGACACTTTGGACGGGTTGAAGTTCTGCACGTAGAAGCAAAAGGC: the fraction ligated was found to be 0.37.

Turning to GAGACCGCAACTGAAAAGTTGTTATCACTTGTAGTAAGACACTTTGGAAGGGTTGAAGTTCTGCACGTAGAAGCAAAAGGC, the fraction ligated worked out at 0.725.

Consider GAGACCGCAACTGAAAAGTTGTTATCACTTGTAGTAAGACACTTTGGAGGGGTTGAAGTTCTGCACGTAGAAGCAAAAGGC, for which the fraction ligated stood at 0.739.

In the case of GAGACCGCAACTGAAAAGTTGTTATCACTTGTAGTAAGACACTTTGGCTGGGTTGAAGTTCTGCACGTAGAAGCAAAAGGC, the fraction ligated was determined as 0.784.

On to GAGACCGCAACTGAAAAGTTGTTATCACTTGTAGTAAGACACTTTGGTTGGGTTGAAGTTCTGCACGTAGAAGCAAAAGGC, for which the fraction ligated stood at 0.0887.

In the case of GAGACCGCAACTGAAAAGTTGTTATCACTTGTAGTAAGACACTTTGGGTGGGTTGAAGTTCTGCACGTAGAAGCAAAAGGC, the fraction ligated worked out at 0.79.

As to GAGACCGCAACTGAAAAGTTGTTATCACTTGTAGTAAGACACTTTTGATGGGTTGAAGTTCTGCACGTAGAAGCAAAAGGC, the fraction ligated turned out to be 0.803.
